Experimental data as given in publication PMC8889552.
Where “and” joins values, the source holds several entries; their conditions need not be identical. Equal values may be shown once.

Tests used:
[1] = target: recombinant HIV Gag (Pr55^Gag) (HIV); test: SPR
[2] = target: recombinant HIV Gag (Pr55^Gag) (HIV); test: charge detection mass spectrometry

## recombinant HIV Gag (Pr55^Gag) (natural protein)
[1]
  fold strengthening of homodimerization (SPR Kd) with Ca^2+: < 7 fold
[2]
  stoichiometry N: 125 mers and 220 mers
